# Experimental data reported in the nanobody polyreactivity screen of Harvey et al. (2022).
# Assay: yeast display, Sf9 membrane polyspecificity reagent, FACS + sequencing; frameworks hold sequencing errors
# Procedure, shortened: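 Nanobodies from a synthetic yeast display library (Saccharomyces cerevisiae BJ5465), induced 36–48 hours with galactose, were stained 1 hour at 4 °C with 10% biotinylated, detergent-solubilized Sf9 membrane reagent, enriched on streptavidin microbeads, then FACS-sorted. Anti-HA (expression) and streptavidin (reagent binding) fluorescence set low and high (top ~1%) gates. Polyreactivity labels come from the gate of origin. Genes were colony-PCR amplified, MiSeq 2 × 250 sequenced and filtered by CDR length.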
row,Sequence,polyreactivity (PSR sort gate)
1,QVQLVESGGGLVQAGGSLRLSCAASGRTFYLYAMGWYRQAPGKERELVAAITSAGSTNYADSVKGRFTISRDNAKNTVYLQMNSLKPEDSAVYYCNAYKRGYLYRYNYWGQGTQVTLSS,high polyreactivity
2,QVQLVESGGGLVQAGGSLRLSCAASGRIFPRNVMGWYRQAPGKERELVAAISSRGTRTYYADSVKGRFTISRDNAKNTVYLQMYSLKPEDTAVYYCAADGPYEGYDYWGQGTQVTVSS,high polyreactivity
3,QAELVESGGGLVQAGGSLRLSCAASGFTFTAYAMGWYRQAPGKERELVAAISYRGGRTNYAYSVKGRFTISRDNAKNTVYLQMNSLKPEDTAVYYCAARPRISTREMDYWGQGTQVTVSS,high polyreactivity
4,QVQLQESGGGLEQAGGSLRLSCAASGYISEIGTMGWYRQAPGKEREFVATIVVGSTTNYADSVKGRFTISRDNAKNTVYLQPESGRYRGVLLRGWLLAVGKFNYWGQGTQETVSS,low polyreactivity
5,QVQHVESGGGLVQAAGSLRLSCAASGTTLSSYAMGWSRQAPGKVRELVAAINSSGGRTYYADSVKGRFTISRDNAKNTVYLQMNSLKPDDTAVYYCAATRGRYREYEDYWGQGTQVTVSS,high polyreactivity
6,QVQLVESGGGLVQAGGSLRLSCAASGSIFADYVMGWYRQAPGKERELVAAITRRGRTYYADSVKGRFTISRDNAKNTVYLQMNSLIPEDTAVYYCAKVASGKIDSWGQGTQVTVSS,low polyreactivity
7,QVQLVESGGGLVQAGGSLRLSCAASGSIFYANTMGWYRQAPGKEREFVAAITWSGGSTYYADSVKGRFTISRDNAKNTVYLQMNSLKPEDTAVYYCAAEEQRYWYEYYYWGQGTQVTVSS,high polyreactivity
8,QVHLVESGGGLVQAGGSLRLSCAASGRTFVYYAMGWYRQAPGKERELVAAITSVGSTYYADSVKGRFTISRDNAKNTVYLQMNSLKPEDTAVYYCAKDTWAYPYYWPYDDYWGQGTQVTVSS,low polyreactivity
9,QVQLVESGGGLVQAGGSLRLSCAASGRIFVDNAMGWYRQAPGKERELVAAINYSGGGTYYADSVKGRFTISRDNAKNTVYLQMNSLKPEDTAVYYCAADSDSFWGVPSYYWGQGTQVTVSS,low polyreactivity
10,QVQLVESGGGLVKAGGSLRLSCAASGSIFLTYAMGWNRQAPGKERELVAAITQSGGSTYYADSVKGRFTISRDNAKNTVYLQMNSLKPEDTAVYYCAADVFGPQYWWYDYWGQGTQVTVSS,low polyreactivity
11,QFQLVESGGGLVQAGGSLRLSCAASGFIFTNYAMGWYRQAPGKEWELVAAINRSGGRTYYADSVKGRFTISRDNAKNTVYLQMNSLKPEDNAVYYCAAKGVSYRPAYDYWGQGTQVTVSS,high polyreactivity
12,QVQLVESVGGLVKAGGSLRLSCAASGSIFGTNAMGWYRQAPGKERELVAVISDGGSTYYADSVKGRFTISRENAKNTVYLQMNSLKPADTAVYYCNTPLESPFYSRVGTTESDHWGQGTQVTVSS,low polyreactivity
13,QVQLVESGGGLVQAGGSLRLSCAASGRTFWYYAMGWYRQAPGKEREFVAAISWSGGSTYYADSVKGRFTISRDNAKNTVYLQMNSLKPEDTAVYYCAADGYDSSQFYYWGQGTQVTVSS,low polyreactivity
14,QVQLVESGGGLVQAGGSLRLSCAASGSTSRKYTMGWYRQAPGKERELVATISWSGGSTNYADSVKGRFTISRDNAKNTVYLQMNSLKPEDTAVYYCNAYVSPRYRGSRYYYWGQGTQVTVSS,high polyreactivity
15,QVQLVESGGGLVQGGGSLRLSCAASGFIFDGNAMGWSRQAPGKEREFVASNSGSGDSTYYADSVKGRFTISRDNAKNTVYLQMNSLKPEDTAVYYCAYEGTPWASGNDYWGQGTQVTVSS,low polyreactivity
16,QVRLVESGGGLVQAGGSLRLSCAASGSILDINAMGWYRQAPGKERELVASISWTGGHTYYADSVKGRFTISRDNAKNTVYLQMNSLKPEDTAVYDCAATHQETVYYFLSIFDYWGQGTQVTVSS,low polyreactivity
17,QVQLVESGGGLVQAGGSLRLSCAASGSTFENYAMGWSRQAPGKERELVAAISWSGGSTYYADSVKGRFTISRDNAKNTVYLQMNSLKPEDTAVYYCNAELYLRWGVTVTFDYWGQGTQVTVSS,low polyreactivity
18,QVQLVESGGGLVQAGGSLRLSCAPSGTTFTRNAMGWYREAPGKERELVAAISFSGGSTYYADSVKGRFTISRDNAKNTVYIQMNSLKPEDTAVYYCATKVEYRYYYWGQGTQVTVSS,high polyreactivity
19,QVQLVESGGGLVQAGGSLRLSCAASGLIVPWYDMGWYRQAPGKERELVAAINWRGGSTYYADSVKGRFTISRDNAKNTVYLQMKSLKPEDTAVYYCAACYLHRDSYIYDYWGQGTQVTVSS,low polyreactivity
20,QVQLVESGGGLVQAGGSLRLSCAASGLTFIRYAMGWNRQAPGKERELVASISRGGSTYYADSVKGRFTISRDNAKNTVYLQMNSLKPEDTAVYYCAAQHVGHNYYNSGFYYWGQATQVTVSS,low polyreactivity
21,QVQLVESGGGLVQAGGSLRLSCAASGLTFDLYNMGVYRKAPGKERELVAAISLSGGSTYYADSVKGRFTISRDNAKNTVYLQMNILKPDYTAVYYCAAAHSSSVIVEYDYWGQGTQVTVSS,low polyreactivity
22,QVQLVESGGGLVQAGGSLRLSCAASGFIFGRNAMGWYRQAPGKERELVAAINWRGGSTYYADSVKGRCTISRDNAKNTVYLQMNSLKPEDTAVYYCAARGPYRYGYDYWGQGTQVTVSS,high polyreactivity

row,Sequence,polyreactivity (PSR sort gate)
1,QVQLVESGGGLVQAGGSLRLSCAASGITFYGYAMGWYRQAPGKERELVAVITSSGSSTYYADSVKGRFTISRDNAKNTVYLQMNSLTPEDTAVYYCNARPGRRSLRSRTYDYWGQGTQVTVSS,high polyreactivity
2,QVQLVESGGGLVQAGGSLRLSCAASGIIFYVYAMGWYRQAPGKERELVAAISSSGGSTNYADSVKGRFTISRDNAKNTVYLQMNSLKPEDTAVYFCAAKWRTRGHTSARGYWGQGTQVTVSS,high polyreactivity
3,QVQLVESGGGLVQAGGSLRLSCAASGSIFYYAMGWYRQAPGKERELVAAITWRGGRTYYADSVKGRFTISRDNAKNTVYLQMNSLKPEDTAVYYCNAVAPGKYNHWGQGTQVTVSS,high polyreactivity
4,QVQIGQSGGGLVQAGGSLRLSCAASGRIIWSNAMGWNRQAPGKERELVAAIRNTGSTNYADSVKGRFTISRDNAKNTVYLQMNSLKPEDTEVYYCAADRATYCTYAYGYWGQGTQVTVSS,high polyreactivity
5,QVQLVDSGGGLVQAGGSLRLSCAASGRIFIVNPMGRYRQAPGKEREFVAAITSRGGITYYADSVKGRFTISRDNAKNTVYLQMNTLKPEDTAVYYFAAGYISWGSGNWGVTPYDYWGQGTQVTVSS,high polyreactivity
6,QVQLVESGGGLVQAGGSLRLSCAASGLTFDSNAMGWYRQAPGKERELVAAISGSVGSTYYADSVKGRFTISRDNAKNTVYLQMNSLKPEDTAVYYCNASSVDKGYDYWGQGTQVTVSS,low polyreactivity
7,QVQLVESGGGLVQAGGSLRLSCAASGRIFRPYAMGWYRQAPGKERELVAAITQSGGITSYADSVKGRFTISRDNAKNSVYLQMNSLKPEDTAVYYCATTSRYTRSHYDWYDYWGQGTQVTVSS,low polyreactivity
8,QVQLVESGGGLVQAGGSLRLSCAASGITFYYYAMGWYRQEPGKERELVAAINWSGTSTYYADSVKGRFTISRDNAKNTVYLQMNSLKPEDTAVYYCNAERGRSFWWAYDYWGQGTQVTVSS,low polyreactivity
9,QVHLVESAGGLVQAGGSLRLSCAASGLIFGTYAMGWYRPAPGKERELVATINSSGGSTYYADSVKGRFTISRDNAKNTVYLQINSLKPEDTAVYYCAADNWVNDGDYWGQGTQVTVLS,low polyreactivity
10,QVQLVESGGGLVQAGGSLRLSCAPSGRTFGSNTMGLYRQAPGKEIELVAGITFSSGSTYYADSVKGRFTISRDNANNTVYLQMNSLKPEDTAVYDCAVRNASKNRKYYYWGQGTQVTVSS,high polyreactivity
11,QVQLVESGGGLVQAGGSLRLSCAASGSIFYVNTMGWYRQAPGKERELVAGITSRGGSTYYADSVKGRFTISRDNAKNTVYLQMNSLKPEDTAVYYCAKRAYGTALYRGYGYWGQGTQVTVSS,low polyreactivity
12,QVQLVESGGGLVQAGGSLRLSCAASGSIYPFYAMGWYRQAPGKERELVATISSGDSTHYADSVKGRFTISRDNAKNTVYEQMNSLKPEDTAVYYCNRRNKAQRFFDLGYWGQGTQVTVSS,low polyreactivity
13,QVQLVESGGVLVQAGGSLRLSCAASGSTFHRSAMGWYRQAPGKERELVATINLNTGSTYADSVKGRFTISRDNAKNTVYLQMNSLKPEDTAVYYCAAYGRWPFTWYNYWGQGTQVTVSS,low polyreactivity
14,QVQLVESGGGLVQAGGSLRLSCAASGSTFHGYDMGWYRQAPGKERELVAAITSSGDDTYYADSVKGRFTISRDNAKNTVYLQMNSLKPEDTAVYYCAAEYTEGYTHDYWGQGTQVNVSS,low polyreactivity
15,QVQLQQSVGGLVQAGGSLRLSCAASGNIFPTDRMGWYRQAPGKELEFVATISHGGRTNYADSVKGRFTISRDNATNTVYLQMNRLKPEDTAVYFCAVWSLGRWRHYYWGQGSQVTVSS,low polyreactivity
16,QVQLVESGGGLVQAGGSLRLSCAASGRISVFNAMGWYRQAPGKERELVAAITSGGSTNYADSVKGRFTISRDNAKNTVYLQMNSLKPEDTAVYYSNADVYHSHEPHYDYWGQGTQVTVSS,low polyreactivity
17,QVQLVESGGGLVQAGGSLRLSCAASGRIFYYNAMGGYTQAPGKERELVAAIDWSGGSTYYADSVKGRITISRANAKNTVYLQMNSLKPEDTAVYYCNAPFRYVPPEGSGPYDYWGQGTQVTVSS,low polyreactivity
18,QVQLVESGGGLVQAGGSLRLSCAATGSIFFDNAMGWYRQAPGHERELVAAITSSGGRTYYADSVKGRFTISRDNAKNTVYLQMNSLKPEDTAVYYCAASPKYTTGRYSGEYWGQGTQVTVSS,low polyreactivity
19,QVQLVESGGGLVQAGGSLRLSCAASGFILYTYAMGWYIQAPGKERELVADIDSGDGTYYADSVKGRFTISRDNAKNTVYLQMNSLKPEDTAVDYCAADYGGASEYGYWGQGTQVTVSS,low polyreactivity
20,QVQLVESGGGLVQAGGSLRLSCAASGSIFQKYAMGWYRPAPGKERELVAAISSGGGRTYYADSVKGRFTISRDNAKNTVYLQMNSLKPEDTAVYYCAARGSYTSIFDYWGQGTQVTVSS,high polyreactivity
21,QVHLVESGGGLVEAGGSLRLSCAASGRIFQGYAMGWYRQAPGKERELVAAITRSGGSTYYADSVKGRFTISRDNAKNTVYLQMNSLKPEDTAVYYCAASHYGLLEYWGQGTQVTVSS,low polyreactivity
